According to paper PMC4186791:

Target: UbxIVa Pro4 (Drosophila melanogaster)
Assay: two-hybrid; LexA-Ubx variant (pLexA) and B42-partner (pB42) co-transformed into S. cerevisiae EGY48 carrying p8op-LacZ; blue/white colonies on X-gal and liquid β-galactosidase (ONPG) assay after galactose induction at 30°C, reported in Miller units

B1: Cap-binding protein 1 (natural protein)
chain: MSRRRAHDTEDEGYDHRRNKRRRVSENQEIEDRLESLILRVGERSTSSVESNLEGLVSVLEADLGTFRLKILRILSDCAVRMPEKCTVYTTLVGLLNAKNYKFGGEFVDHMVKTFKESLKMCRWDAARYSLRFLADLVNCHVISATSLLQLLDTMIDVSNEDTVPQVRRDWFVFAVLSTLPWVGRDLYEKKESALESLLLRIEVYLNKRSKKHHNALRVWSSDAPHPQEEYLDCLWAQIRKLRQDNWAEKHIPRPYLVFDSILCEALQHNLPTIVPPPHHDNFEYPMPWVVYRMFDYTDCPDGPNLPGAHSIERFLIEEHLHHIIETYHHERKDCAAQLLSFPYKHKIPLEYCIVEVVFAELFHMPTPRYLDICYGSILIELCKLQPATLPQVLAQATEILFMRIDSMNTSCFDRFVNWFSYHLSNFKFTWSWDEWDSCLLLDGEHPRPKFIQEVLQKCLRLSYHQRITEMMPTTYAKLIPLTPVPNYKYANEEAANLPGTTVAHQLVVAIRQKCTPEEVVNILKDIPNSGYSGEEMSDGSFNALKIDVFVQTLLNLGSKSFSHSFAAISKFHSVFRALAETEEAQICILHNIFELWSSHQQMMVVLIDKLLKLQIVDCSAVATWIFSKEMTGEFTKLYLWEILHLTIKKMNKHVIKLNTELSEAKEKLAKADSSSSDSEDDSSHKRKKPITHADKPSEEVVERMEEKLEAANVNQKRLFLIVFQRFIMILSEHLLRSDTDGRDPDTDWYRWTIGRLQQVFLMHHEQVQKYSSTLETLLFTSDLDTHILEVFQQFVALRA
With B1 the percent of binding lost relative to UbxIb Pro4 was 85%.

B2: Armadillo (natural protein)
chain: MSYMPAQNRTMSHNNQYNPPDLPPMVSAKEQTLMWQQNSYLGDSGIHSGAVTQVPSLSGKEDEEMEGDPLMFDLDTGFPQNFTQDQVDDMNQQLSQTRSQRVRAAMFPETLEEGIEIPSTQFDPQQPTAVQRLSEPSQMLKHAVVNLINYQDDAELATRAIPELIKLLNDEDQVVVSQAAMMVHQLSKKEASRHAIMNSPQMVAALVRAISNSNDLESTKAAVGTLHNLSHHRQGLLAIFKSGGIPALVKLLSSPVESVLFYAITTLHNLLLHQDGSKMAVRLAGGLQKMVTLLQRNNVKFLAIVTDCLQILAYGNQESKLIILASGGPNELVRIMRSYDYEKLLWTTSRVLKVLSVCSSNKPAIVDAGGMQALAMHLGNMSPRLVQNCLWTLRNLSDAATKVEGLEALLQSLVQVLGSTDVNVVTCAAGILSNLTCNNQRNKATVCQVGGVDALVRTIINAGDREEITEPAVCALRHLTSRHVDSELAQNAVRLNYGLSVIVKLLHPPSRWPLIKAVIGLIRNLALCPANHAPLREHGAIHHLVRLLMRAFQDTERQRSSIATTGSQQPSAYADGVRMEEIVEGTVGALHILARESHNRALIRQQSVIPIFVRLLFNEIENIQRVAAGVLCELAADKEGAEIIEQEGATGPLTDLLHSRNEGVATYAAAVLFRMSEDKPQDYKKRLSIELTNSLLREDNNIWANADLGMGPDLQDMLGPEEAYEGLYGQGPPSVHSSHGGRAFHQQGYDTLPIDSMQGLEISSPVGGGGAGGAPGNGGAVGGASGGGGNIGAIPPSGAPTSPYSMDMDVGEIDAGALNFDLDAMPTPPNDNNNLAAWYDTDC
Work on B2 yielded a percent of binding lost relative to UbxIb Pro4 of 60%.
